# From patent US20160291016A1 (CHU SAINTE JUSTINE, published 2016)
# B1: osteopontin (OPN), endogenous, in lysates of mouse osteoblasts (ligand)
# chain: not shown
# notes: Endogenous protein detected by Western blot with an anti-OPN antibody after immunoprecipitation of its receptors
# Columns and labels:
# [1] = biological target: T1, integrin β1 (OPN receptor subunit) of mouse osteoblasts (mouse, UniProt P09055 21-798); assay: co-immunoprecipitation from mouse osteoblast lysates, Western blot
# T1 construct: Only the subunit is named; also called β1 integrin
# T1 sequence (chain, as listed by the source limits assumed, chain 1 of 2): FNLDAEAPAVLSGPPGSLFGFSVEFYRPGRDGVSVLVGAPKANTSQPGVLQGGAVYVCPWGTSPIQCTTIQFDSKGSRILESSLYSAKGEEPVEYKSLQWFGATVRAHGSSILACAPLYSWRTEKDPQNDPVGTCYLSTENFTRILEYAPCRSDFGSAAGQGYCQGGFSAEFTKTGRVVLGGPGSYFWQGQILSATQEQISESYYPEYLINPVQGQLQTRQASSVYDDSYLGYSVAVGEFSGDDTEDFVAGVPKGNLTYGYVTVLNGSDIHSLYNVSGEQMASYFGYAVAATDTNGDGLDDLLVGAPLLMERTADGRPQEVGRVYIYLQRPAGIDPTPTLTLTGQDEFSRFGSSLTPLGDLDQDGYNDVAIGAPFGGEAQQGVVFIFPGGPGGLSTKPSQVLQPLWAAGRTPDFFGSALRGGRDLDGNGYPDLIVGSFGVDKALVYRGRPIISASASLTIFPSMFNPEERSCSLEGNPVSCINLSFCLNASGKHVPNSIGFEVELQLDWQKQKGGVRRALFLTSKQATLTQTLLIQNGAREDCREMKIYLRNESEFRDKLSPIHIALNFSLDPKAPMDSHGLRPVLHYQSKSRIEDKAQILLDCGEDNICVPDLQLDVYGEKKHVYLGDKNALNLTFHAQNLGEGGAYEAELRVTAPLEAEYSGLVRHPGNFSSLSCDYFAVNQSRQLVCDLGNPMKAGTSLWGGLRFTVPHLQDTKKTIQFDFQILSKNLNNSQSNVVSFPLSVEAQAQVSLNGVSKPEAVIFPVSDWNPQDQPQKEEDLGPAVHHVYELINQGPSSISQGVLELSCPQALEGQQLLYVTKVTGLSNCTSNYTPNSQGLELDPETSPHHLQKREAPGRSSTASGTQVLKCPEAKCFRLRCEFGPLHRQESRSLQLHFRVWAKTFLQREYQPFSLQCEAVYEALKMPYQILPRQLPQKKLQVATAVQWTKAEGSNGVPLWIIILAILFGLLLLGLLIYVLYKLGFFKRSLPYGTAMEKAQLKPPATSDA
# T1 sequence (P09055 21-798 limits assumed, chain 2 of 2): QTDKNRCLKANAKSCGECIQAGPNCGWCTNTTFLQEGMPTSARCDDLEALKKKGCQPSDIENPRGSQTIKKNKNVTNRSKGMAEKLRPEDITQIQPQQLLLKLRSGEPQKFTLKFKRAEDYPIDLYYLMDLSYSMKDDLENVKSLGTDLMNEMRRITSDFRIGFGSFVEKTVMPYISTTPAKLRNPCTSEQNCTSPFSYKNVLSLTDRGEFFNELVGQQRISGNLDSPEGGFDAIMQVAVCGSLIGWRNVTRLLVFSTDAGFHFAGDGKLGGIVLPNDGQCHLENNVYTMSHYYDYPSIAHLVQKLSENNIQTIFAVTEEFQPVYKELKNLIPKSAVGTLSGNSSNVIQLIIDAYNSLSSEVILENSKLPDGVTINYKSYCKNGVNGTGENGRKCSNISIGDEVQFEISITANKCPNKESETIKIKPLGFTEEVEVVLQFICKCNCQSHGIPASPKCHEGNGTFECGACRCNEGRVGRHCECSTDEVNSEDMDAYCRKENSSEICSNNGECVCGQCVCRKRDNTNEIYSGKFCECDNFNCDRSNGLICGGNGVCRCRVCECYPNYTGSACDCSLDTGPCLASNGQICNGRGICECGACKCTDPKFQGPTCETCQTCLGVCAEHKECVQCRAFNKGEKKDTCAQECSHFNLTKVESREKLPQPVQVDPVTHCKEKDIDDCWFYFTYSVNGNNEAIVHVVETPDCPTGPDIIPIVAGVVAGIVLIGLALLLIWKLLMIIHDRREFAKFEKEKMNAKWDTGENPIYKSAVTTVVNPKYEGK
# Source text: (§1) Then, was examined whether the interaction of OPN with the receptor is influenced by PTPμ deficiency. […] In contrast, levels of CD44 in OPN immunoprecipitates were similar in WT and PTPμ^{-/-} osteoblasts.
# [2] = biological target: T2, integrin α5 (OPN receptor subunit) of mouse osteoblasts (mouse, UniProt P11688 45-1053); assay: as above
# T2 construct: Only the subunit is named; also called α5 integrin
# T2 sequence (P11688 45-1053 limits assumed, chain 1 of 2): as the sequence (chain, as listed by the source limits assumed, chain 1 of 2) above
# T2 sequence (chain, as listed by the source limits assumed, chain 2 of 2): as the sequence (P09055 21-798 limits assumed, chain 2 of 2) above
# Source text: as §1
binder,measurement,setting,value
B1,"fold change of the level in the immunoprecipitates, PTPµ-/- osteoblasts against WT osteoblasts",[1],> 30 fold
same,"fold change of the level in the immunoprecipitates, PTPµ-/- osteoblasts against WT osteoblasts",[2],> 30 fold
